Measured values published in the RNAGym collection of RNA variant scans (doi:10.1093/molbev/msab373).

B1: Azoarcus group I ribozyme (parent)
chain: GUGCCUUGCGCCGGGAAACCACGCAAGGGAUGGUGUCAAAUUCGGCGAAACCUAAGCGCCCGCCCGGGCGUAUGGCAACGCCGAGCCAAGCUUCGGCGCCUGCGCCGAUGAAGGUGUAGAGACUAGACGGCACCCACCUAAGGCAAACGCUAUGGUGAAGGCAUAGUCCAGGGAGUGGCGAAAGUCACACAAACCGG

Variants of: B1
Test: reverse-splicing fitness (ratio to wild type); higher = more active; in vitro selection; Mg2+ level not given
Outline: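 An in vitro group I ribozyme library with randomized positions was T7-transcribed and gel-purified. In triplicate, 10 pmol RNA in EPPS pH 7.5 was reacted with 50 pmoles of a 30-nt RNA substrate for 1 h at 37 °C across several added MgCl2 levels (1–48 mM), then stopped with EDTA. Products were reverse transcribed from a substrate-complementary primer, PCR-amplified and sequenced (HiSeq 4000). Fitness is a variant's read proportion after selection over that before, normalised to wild type.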

Question: Which reverse-splicing fitness does the source give for GUGCCUUGCGCCGGGAAACCACGCAAGGGAUGGUGUCAAAUUCGGCGAAACCUAAGCGCCCGCCCGGGCGUAUGGCAACGCUGAGCCAAGCUUCGGCGCCUGCGCCGAUGGAGGUGUAGUGACUAGACGGCACCCACCUAAGGCUAACGUUAUGGUGAAGGCAUAGUCUAGGGAGGGGCGAAAGUCACACAAACCGG [C82U A111G A120U A145U C150U C169U U176G] here?
Answer: 0.00192

Question: Which reverse-splicing fitness does the source give for GUGCCUUGCGCCGGGAAACCACGCAAGGGAUGGUGUCAAAUUCGGCGAAACCUAAGCGCCCGCCCGGGCGUAUGGCAACGCUGAGCCAAGCUUCGGCGCCUGCGCCGAUGGAGGUGUAGUGACUAGACGGCACCCACCUAAGGCUAACGUUAUGGUGAAGGCAUAGUCUAGGGAGCGGCGAAAGUCACACAAACCGG [C82U A111G A120U A145U C150U C169U U176C] here?
Answer: 0.00261

Question: For GUGCCUUGCGCCGGGAAACCACGCAAGGGAUGGUGUCAAAUUCGGCGAAACCUAAGCGCCCGCCCGGGCGUAUGGCAACGCUGAGCCAAGCUUCGGCGCCUGCGCCGAUGGAGGUGUAGUGACUAGACGGCACCCACCUAAGGCUAACGUUAUGGUGAAGGCAUAGUCUAGGGAGAGGCGAAAGUCACACAAACCGG [C82U A111G A120U A145U C150U C169U U176A], which reverse-splicing fitness is on record?
Answer: 0.00262

Question: For GUGCCUUGCGCCGGGAAACCACGCAAGGGAUGGUGUCAAAUUCGGCGAAACCUAAGCGCCCGCCCGGGCGUAUGGCAACGCUGAGCCAAGCUUCGGCGCCUGCGCCGAUGGAGGUGUAGUGACUAGACGGCACCCACCUAAGGCUAACGGUAUGGUGAAGGCAUAGUCCAGGGAGAGGCGAAAGUCACACAAACCGG [C82U A111G A120U A145U C150G U176A], which reverse-splicing fitness is on record?
Answer: 0.00344

Question: With GUGCCUUGCGCCGGGAAACCACGCAAGGGAUGGUGUCAAAUUCGGCGAAACCUAAGCGCCCGCCCGGGCGUAUGGCAACGCUGAGCCAAGCUUCGGCGCCUGCGCCGAUGGAGGUGUAGUGACUAGACGGCACCCACCUAAGGCUAACGGUAUGGUGAAGGCAUAGUCCAGGGAGCGGCGAAAGUCACACAAACCGG [C82U A111G A120U A145U C150G U176C] as the variant, how does the reverse-splicing fitness read?
Answer: 0.00492

Question: With GUGCCUUGCGCCGGGAAACCACGCAAGGGAUGGUGUCAAAUUCGGCGAAACCUAAGCGCCCGCCCGGGCGUAUGGCAACGCUGAGCCAAGCUUCGGCGCCUGCGCCGAUGGAGGUGUAGUGACUAGACGGCACCCACCUAAGGCUAACGGUAUGGUGAAGGCAUAGUCCAGGGAGGGGCGAAAGUCACACAAACCGG [C82U A111G A120U A145U C150G U176G] as the variant, how does the reverse-splicing fitness read?
Answer: 0.00254

Question: For GUGCCUUGCGCCGGGAAACCACGCAAGGGAUGGUGUCAAAUUCGGCGAAACCUAAGCGCCCGCCCGGGCGUAUGGCAACGCUGAGCCAAGCUUCGGCGCCUGCGCCGAUGGAGGUGUAGUGACUAGACGGCACCCACCUAAGGCUAACGUUAUGGUGAAGGCAUAGUCGAGGGAGAGGCGAAAGUCACACAAACCGG [C82U A111G A120U A145U C150U C169G U176A], which reverse-splicing fitness is on record?
Answer: 0.0026

Question: With GUGCCUUGCGCCGGGAAACCACGCAAGGGAUGGUGUCAAAUUCGGCGAAACCUAAGCGCCCGCCCGGGCGUAUGGCAACGCUGAGCCAAGCUUCGGCGCCUGCGCCGAUGGAGGUGUAGUGACUAGACGGCACCCACCUAAGGCUAACGUUAUGGUGAAGGCAUAGUCGAGGGAGCGGCGAAAGUCACACAAACCGG [C82U A111G A120U A145U C150U C169G U176C] as the variant, how does the reverse-splicing fitness read?
Answer: 0.00294

Question: Which reverse-splicing fitness does the source give for GUGCCUUGCGCCGGGAAACCACGCAAGGGAUGGUGUCAAAUUCGGCGAAACCUAAGCGCCCGCCCGGGCGUAUGGCAACGCUGAGCCAAGCUUCGGCGCCUGCGCCGAUGGAGGUGUAGUGACUAGACGGCACCCACCUAAGGCUAACGUUAUGGUGAAGGCAUAGUCGAGGGAGGGGCGAAAGUCACACAAACCGG [C82U A111G A120U A145U C150U C169G U176G] here?
Answer: 0.00172

Question: With GUGCCUUGCGCCGGGAAACCACGCAAGGGAUGGUGUCAAAUUCGGCGAAACCUAAGCGCCCGCCCGGGCGUAUGGCAACGCUGAGCCAAGCUUCGGCGCCUGCGCCGAUGGAGGUGUAGUGACUAGACGGCACCCACCUAAGGCUAACGGUAUGGUGAAGGCAUAGUCGAGGGAGAGGCGAAAGUCACACAAACCGG [C82U A111G A120U A145U C150G C169G U176A] as the variant, how does the reverse-splicing fitness read?
Answer: 0.00235

Question: With GUGCCUUGCGCCGGGAAACCACGCAAGGGAUGGUGUCAAAUUCGGCGAAACCUAAGCGCCCGCCCGGGCGUAUGGCAACGCUGAGCCAAGCUUCGGCGCCUGCGCCGAUGGAGGUGUAGUGACUAGACGGCACCCACCUAAGGCUAACGGUAUGGUGAAGGCAUAGUCGAGGGAGCGGCGAAAGUCACACAAACCGG [C82U A111G A120U A145U C150G C169G U176C] as the variant, how does the reverse-splicing fitness read?
Answer: 0.00239

Question: For GUGCCUUGCGCCGGGAAACCACGCAAGGGAUGGUGUCAAAUUCGGCGAAACCUAAGCGCCCGCCCGGGCGUAUGGCAACGCUGAGCCAAGCUUCGGCGCCUGCGCCGAUGGAGGUGUAGUGACUAGACGGCACCCACCUAAGGCUAACGGUAUGGUGAAGGCAUAGUCGAGGGAGGGGCGAAAGUCACACAAACCGG [C82U A111G A120U A145U C150G C169G U176G], which reverse-splicing fitness is on record?
Answer: 0.00175

Question: For GUGCCUUGCGCCGGGAAACCACGCAAGGGAUGGUGUCAAAUUCGGCGAAACCUAAGCGCCCGCCCGGGCGUAUGGCAACGCUGAGCCAAGCUUCGGCGCCUGCGCCGAUGGAGGUGUAGUGACUAGACGGCACCCACCUAAGGCUAACGGUAUGGUGAAGGCAUAGUCAAGGGAGGGGCGAAAGUCACACAAACCGG [C82U A111G A120U A145U C150G C169A U176G], which reverse-splicing fitness is on record?
Answer: 0.00207

Question: Which reverse-splicing fitness does the source give for GUGCCUUGCGCCGGGAAACCACGCAAGGGAUGGUGUCAAAUUCGGCGAAACCUAAGCGCCCGCCCGGGCGUAUGGCAACGCUGAGCCAAGCUUCGGCGCCUGCGCCGAUGGAGGUGUAGUGACUAGACGGCACCCACCUAAGGCUAACGGUAUGGUGAAGGCAUAGUCAAGGGAGAGGCGAAAGUCACACAAACCGG [C82U A111G A120U A145U C150G C169A U176A] here?
Answer: 0.00259

Question: With GUGCCUUGCGCCGGGAAACCACGCAAGGGAUGGUGUCAAAUUCGGCGAAACCUAAGCGCCCGCCCGGGCGUAUGGCAACGCUGAGCCAAGCUUCGGCGCCUGCGCCGAUGGAGGUGUAGUGACUAGACGGCACCCACCUAAGGCUAACGGUAUGGUGAAGGCAUAGUCAAGGGAGCGGCGAAAGUCACACAAACCGG [C82U A111G A120U A145U C150G C169A U176C] as the variant, how does the reverse-splicing fitness read?
Answer: 0.00216
